Results from patent US20240158497A1 (published 2024).

T1: Macaca fascicularis GP130 extracellular domain expressed with a C-terminal myc-myc-hexahistidine tag (Macaca fascicularis, UniProt P40189 23-619 (human entry))
T1 construct: Monomeric reagent; also called mfGP130-mmH; mfGP130-MMH
T1 chain: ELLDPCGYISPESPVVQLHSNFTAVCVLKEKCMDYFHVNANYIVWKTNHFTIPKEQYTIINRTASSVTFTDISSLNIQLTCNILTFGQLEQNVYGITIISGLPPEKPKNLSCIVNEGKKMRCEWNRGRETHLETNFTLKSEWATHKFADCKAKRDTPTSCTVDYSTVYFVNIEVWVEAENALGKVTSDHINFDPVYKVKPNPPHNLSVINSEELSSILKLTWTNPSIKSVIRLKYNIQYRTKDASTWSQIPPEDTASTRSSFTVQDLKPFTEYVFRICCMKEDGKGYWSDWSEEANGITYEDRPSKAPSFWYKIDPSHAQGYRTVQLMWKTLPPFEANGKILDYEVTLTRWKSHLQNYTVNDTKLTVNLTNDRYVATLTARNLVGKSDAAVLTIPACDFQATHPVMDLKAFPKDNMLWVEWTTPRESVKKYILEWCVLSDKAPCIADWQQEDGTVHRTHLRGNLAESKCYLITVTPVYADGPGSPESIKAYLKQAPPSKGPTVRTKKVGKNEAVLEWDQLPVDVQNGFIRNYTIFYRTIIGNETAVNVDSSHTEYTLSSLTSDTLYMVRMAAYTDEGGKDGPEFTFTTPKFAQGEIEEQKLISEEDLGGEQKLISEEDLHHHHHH

T2: Macaca Fascicularis GP130 extracellular domain expressed with a C-terminal myc-myc-hexahistidine tag (Macaca fascicularis, UniProt P40189 23-619 (human entry))
T2 construct: also called mfGP130-MMH; mfGP130-mmH
T2 chain: T1 chain

B1: MAb16614 (antibody, V domains shown)
VH: QVQLVESGGGVVQPGGSLRLSCAASGFTFSTYDIHWVRQAPGKGLEWVAVISFDGSNRNYGDSVKGRFTISRDNSDNTLFLEMNNLRFEDTAVYYCAKEGYGVDFQHWGQGTLVTVSS
VL: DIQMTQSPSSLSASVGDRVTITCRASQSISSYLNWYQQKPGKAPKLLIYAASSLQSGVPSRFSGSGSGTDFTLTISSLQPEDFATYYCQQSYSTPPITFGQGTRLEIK
B2: MAb16618 (antibody, V domains shown)
VH: QVQLQESGPGLVKPSETLSLTCTVSGGSISNYYWTWIRQPPGKGLEWIGHISNSGTTNYNPSLKSRVTISVDTSKNQFSLKLTSVTAADTAVYYCARLPLGIAAVDTDYYYYFGMDVWGQGTTVTVSS
VL: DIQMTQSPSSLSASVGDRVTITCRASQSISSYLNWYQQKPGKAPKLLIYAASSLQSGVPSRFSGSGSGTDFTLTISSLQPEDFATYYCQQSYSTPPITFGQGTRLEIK
B3: MAb16622 (antibody, V domains shown)
VH: EVQLVESGGGVVRPGGSLRLSCTASGFTFDDYGMSWVRQAPGKGLEWVSGINWNGGRTEYADAVKGRFIISRDNAKNSLYLQMNSLRAEDTALYFCARTELRWDYWGQGTLVTVSS
VL: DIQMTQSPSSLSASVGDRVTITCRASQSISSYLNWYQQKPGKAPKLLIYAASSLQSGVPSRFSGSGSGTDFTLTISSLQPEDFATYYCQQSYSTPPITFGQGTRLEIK
B4: MAb16623 (antibody, V domains shown)
VH: EVQLVESGGGLVQPGGSLRLSCAASGLTFSSYEMNWVRQAPGKGLEWVSHISSAGSTKYYADSVKGRFTISRDNAKNSLFLQMNSLRAEDTAIYYCAGYNYAYYYFGVDVWGQGTTVTVSS
VL: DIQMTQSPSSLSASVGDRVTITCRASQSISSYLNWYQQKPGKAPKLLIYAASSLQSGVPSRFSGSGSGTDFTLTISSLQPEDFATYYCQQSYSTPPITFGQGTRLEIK
B5: bsAb19155D (bispecific antibody, V domains shown)
VH 1: QVQLVESGGGVVQPGRSLRLSCTASGFTFSSYAMYWVRQAPGKGLEWVSVIYYDGSYKYYADSVKGRFTISRDNSKNTLYLQMDSLRAEDTAVYYCASYNWNYWYFDFWGRGTLVTVSS
VH 2: EVQLVESGGGLVQPGGSLRLSCAASGFTFSTYWMNWVRQAPGKGLEWVANIKEDGSEKYYVDSVKGRFTISRDNAKNSLYLQMNSLRAEDTAVYYCAREGFGVVTYIWGQGTMVTVSS
VL: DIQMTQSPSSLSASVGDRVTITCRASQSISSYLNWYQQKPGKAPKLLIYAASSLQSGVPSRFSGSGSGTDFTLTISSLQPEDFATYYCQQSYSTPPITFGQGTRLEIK
notes: LEPR x GP130 bispecific with common light chain
B6: bsAb19156D (bispecific antibody, V domains shown)
VH 1: B5 VH 1
VH 2: QVQLVESGGGLVKPGGSLRLSCAASGFTFSDYYMTWIRQTPGKGLDWVSYISSSGTNKYNADSVKGRFTISRDNAKNSLYLQMNSLRAEDTAVYYCVRDPPWGMDVWGQGTTVTVSS
VL: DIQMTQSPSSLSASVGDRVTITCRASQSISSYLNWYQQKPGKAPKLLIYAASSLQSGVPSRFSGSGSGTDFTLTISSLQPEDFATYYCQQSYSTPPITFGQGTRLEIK
notes: as for B5
B7: bsAb19757D (bispecific antibody, V domains shown)
VH 1: EVQLVESGGGLVQPGGSLRLSCVASGFTFNKYDMHWVRQTTGKGLEWVSGIDTDGDTYYPGSVKGRFTISRENAENSLYLQMNGLRVGDTAVYYCARWPWSGFYGAFDIWGQGTMVTVSS
VH 2: B3 VH
VL: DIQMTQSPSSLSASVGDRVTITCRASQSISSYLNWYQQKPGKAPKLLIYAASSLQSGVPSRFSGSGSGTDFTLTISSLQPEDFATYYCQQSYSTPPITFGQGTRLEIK
notes: as for B5
B8: bsAb19758D (bispecific antibody, V domains shown)
VH 1: B7 VH 1
VH 2: EVQLVESGGGLVQSGGSLRLSCAASGFTFSRYEMNWVRQAPGKGLEWVAYISNTGTTRDYSDSVKGRFTISRDNAKNSLYLQMSSLRVEDTAVYYCVREKFSGTSDWFDPWGQGTLVTVSS
VL: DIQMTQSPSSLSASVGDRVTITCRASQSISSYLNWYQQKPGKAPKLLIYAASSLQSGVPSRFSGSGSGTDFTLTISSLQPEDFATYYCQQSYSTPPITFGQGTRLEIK
notes: as for B5

Molecular target: T1, Macaca fascicularis GP130 extracellular …
Experiment: SPR (Biacore 4000), mAb captured on anti-human Fc, 37 C
Protocol: (§1) Equilibrium dissociation constant (KD) for different GP130 reagents binding to purified anti-GP130 monoclonal antibodies were determined using a real-time surface plasmon resonance based Biacore 4000 biosensor. All binding studies were performed in 10 mM HEPES, 150 mM NaCl, 3 mM EDTA, and 0.05% v/v Surfactant Tween-20, pH 7.4 (HBS-ET) running buffer at 25° C. and 37° C. The Biacore sensor surface was first derivatized by amine coupling with a monoclonal mouse anti-human Fc antibody (GE, #BR-1008-39) to capture anti-GP130 monoclonal antibodies. […] Reagents tagged with “mmH” are monomeric, whereas reagents tagged with “mFc” are dimeric. Thus, for example, “hGP130-mmH” is also referred to as “monomeric human GP130,” and “hGP130-mFc” is also referred to as “dimeric human GP130.”
(§2) The association rate (k a) and dissociation rate (kd) were determined by fitting the real-time binding sensorgrams to a 1:1 binding model with mass transport limitation using Scrubber 2.0c curve-fitting software. Binding dissociation equilibrium constant (KD) and dissociative half-life (t ½) were calculated from the kinetic rates as: […]

Binder | 100 nM Ag Bound [RU] | Kd [nM] | koff [s⁻¹] | kon [M⁻¹ s⁻¹] | t½ [s]
B1 | 8 | 72.2 | 0.0267 | 370000 | 24
B2 | 26 | 90.3 | 0.12 | 1.33e+06 | 6
B3 | 28 | 198 | 0.0537 | 272000 | 12
B4 | 60 | 44.3 | 0.0156 | 352000 | 42

molecular target: T3, human GP130 extracellular domain expressed with a C-terminal myc-myc-hexahistidine tag (human, UniProt P40189 23-619); experiment: as above
T3 construct: Monomeric reagent; also called hGP130-mmH; hGP130-MMH
Protocol: as §1, §2

Binder | 100 nM Ag Bound [RU] | Kd [nM] | koff [s⁻¹] | kon [M⁻¹ s⁻¹] | t½ [s]
B1 | 10 | 121 | 0.03 | 247000 | 24
B2 | 36 | 103 | 0.112 | 1.08e+06 | 6
B3 | 30 | 225 | 0.0574 | 255000 | 12
B4 | 68 | 32.2 | 0.0123 | 381000 | 54

molecular target: T4, human GP130 extracellular domain expressed with a C-terminal myc-myc-hexahistidine tag (human, UniProt P40189 23-619); experiment: SPR, bsAb captured by anti-hFc, 25C
T4 construct: also called hGP130-MMH; hGP130-mmH
Protocol: (§3) Equilibrium dissociation constants (KD values) for LEPR and GP130 binding to purified anti-LEPR/GP130 bispecific antibodies were determined using a real-time surface plasmon resonance biosensor using a Biacore 4000 instrument. All binding studies were performed in 10 mM HEPES, 150 mM NaCl, 3 mM EDTA, and 0.05% v/v Surfactant Tween-20, pH 7.4 (HBS-ET) running buffer at 25° C. and 37° C. The Biacore sensor surface was first derivatized by amine coupling with a monoclonal mouse anti-human Fc antibody (GE, #BR-1008-39) to capture anti-LEPR/GP130 bispecific antibodies. […] Different concentrations of LEPR or GP130 reagents were first prepared in HBS-ET running buffer (100 nM-3.7 nM; 3-fold serial dilution) and were injected over anti-human Fc captured anti-LEPR/GP130 bispecific antibody surface for 4 minutes at a flow rate of 30 μL/minute, while the dissociation of bispecific antibody bound LEPR or GP130 reagent was monitored for 10 minutes in HBS-ET running buffer. Kinetic association (kₐ) and dissociation (kd) rate constants were determined by fitting the real-time binding sensorgrams to a 1:1 binding model with mass transport limitation using Scrubber 2.0c curve-fitting software. Binding dissociation equilibrium constants (KD) and dissociative half-lives (t ½) were calculated from the kinetic rate constants as: […]

Binder | 100 nM hGP130-MMH Bound (RU) | Kd [nM] | koff [s⁻¹] | kon [M⁻¹ s⁻¹] | t½ [s]
B5 | 7 |  |  |  | 
B6 | 27 | 24.7 | 0.00221 | 89500 | 300
B7 | 16 | 196 | 0.0218 | 112000 | 30
B8 | 51 | 14.6 | 0.00457 | 313000 | 150

Molecular target: T2, Macaca Fascicularis GP130 extracellular …
Experiment: SPR, bsAb captured by anti-hFc, 25C
Protocol: as §3

Binder | 100 nM mfGP130-MMH Bound (RU) | Kd [nM] | koff [s⁻¹] | kon [M⁻¹ s⁻¹] | t½ [s]
B5 | 7 | 186 | 0.0184 | 98500 | 36
B6 | 30 | 22.1 | 0.00162 | 73300 | 420
B7 | 15 | 188 | 0.0204 | 108000 | 36
B8 | 46 | 16.5 | 0.00507 | 307000 | 138

molecular target: T4, human GP130 extracellular domain …; experiment: SPR, bsAb captured by anti-hFc, 37C
Protocol: as §3

Binder | 100 nM hGP130-MMH Bound (RU) | binding result | Kd [nM] | koff [s⁻¹] | kon [M⁻¹ s⁻¹] | t½ [s]
B5 | 4 | no binding (tested: 100 nM) |  |  |  | 
B6 | 24 |  | 95 | 0.00797 | 83900 | 84
B7 | 16 |  | 358 | 0.0635 | 178000 | 12
B8 | 50 |  | 16.7 | 0.00747 | 448000 | 90

Molecular target: T2, Macaca Fascicularis GP130 extracellular …
Experiment: SPR, bsAb captured by anti-hFc, 37C
Protocol: as §3

Binder | 100 nM mfGP130-MMH Bound (RU) | Kd [nM] | koff [s⁻¹] | kon [M⁻¹ s⁻¹] | t½ [s]
B5 | 3 |  |  |  | 
B6 | 26 | 87.6 | 0.00767 | 87500 | 90
B7 | 14 | 450 | 0.0598 | 133000 | 12
B8 | 45 | 18.2 | 0.0073 | 402000 | 96

Molecular target: T1, Macaca fascicularis GP130 extracellular …
Experiment: SPR (Biacore 4000), mAb captured on anti-human Fc, 25 C
Protocol: as §1, §2

Binder | 100 nM Ag Bound [RU] | Kd [nM] | koff [s⁻¹] | kon [M⁻¹ s⁻¹] | t½ [s]
B1 | 16 | 139 | 0.0104 | 74400 | 66
B2 | 40 | 166 | 0.0621 | 374000 | 12
B3 | 34 | 151 | 0.02 | 132000 | 36
B4 | 74 | 25.5 | 0.00476 | 187000 | 144
